Measured values reported in US20080044360A1 (COLLAGEN MEDICAL, published 2008).
Bridge positions count the residues as written; N and C are the ends. Square brackets hold non-standard residues; d marks the D form. Primed or numbered codes have the meaning given here. Side chains are listed from the residue outwards. Ends that are not written are not given here. * marks the point of attachment. Tyr(3-Cl) = N[C@@H](Cc1ccc(O)c(Cl)c1)C(=O)O; Bip = N[C@@H](Cc1ccc(-c2ccccc2)cc1)C(=O)O; Tyr(3-I) = N[C@@H](Cc1ccc(O)c(I)c1)C(=O)O; Dip = N[C@H](C(=O)O)C(c1ccccc1)c1ccccc1; Phe(4-NH2) = Nc1ccc(C[C@H](N)C(=O)O)cc1; Gd^T(3) = GdDTPA attached via thiourea; d1Nal = N[C@H](Cc1cccc2ccccc12)C(=O)O; Lys(Gd^T)Gd^T = not defined here; Pen = CC(C)(S)[C@H](N)C(=O)O; Gd^G = not defined here; Gd^T = not defined here; Gd^T″ = GdDTPA-thiourea; Cbz = O=C(OCc1ccccc1)*; Dap = NC[C@H](N)C(=O)O

How the values were obtained:
[1] = biological target: T1, human collagen type I, acid soluble, extracted from placenta (Sigma C7774) (human, UniProt P02452 162-1218; P08123 80-1119); test: dried collagen assay
T1 construct: tissue extract, gelled and dried in wells; also called dried human collagen; h-Collagen
T1 sequence (P02452 162-1218 limits assumed, chain 1 of 2): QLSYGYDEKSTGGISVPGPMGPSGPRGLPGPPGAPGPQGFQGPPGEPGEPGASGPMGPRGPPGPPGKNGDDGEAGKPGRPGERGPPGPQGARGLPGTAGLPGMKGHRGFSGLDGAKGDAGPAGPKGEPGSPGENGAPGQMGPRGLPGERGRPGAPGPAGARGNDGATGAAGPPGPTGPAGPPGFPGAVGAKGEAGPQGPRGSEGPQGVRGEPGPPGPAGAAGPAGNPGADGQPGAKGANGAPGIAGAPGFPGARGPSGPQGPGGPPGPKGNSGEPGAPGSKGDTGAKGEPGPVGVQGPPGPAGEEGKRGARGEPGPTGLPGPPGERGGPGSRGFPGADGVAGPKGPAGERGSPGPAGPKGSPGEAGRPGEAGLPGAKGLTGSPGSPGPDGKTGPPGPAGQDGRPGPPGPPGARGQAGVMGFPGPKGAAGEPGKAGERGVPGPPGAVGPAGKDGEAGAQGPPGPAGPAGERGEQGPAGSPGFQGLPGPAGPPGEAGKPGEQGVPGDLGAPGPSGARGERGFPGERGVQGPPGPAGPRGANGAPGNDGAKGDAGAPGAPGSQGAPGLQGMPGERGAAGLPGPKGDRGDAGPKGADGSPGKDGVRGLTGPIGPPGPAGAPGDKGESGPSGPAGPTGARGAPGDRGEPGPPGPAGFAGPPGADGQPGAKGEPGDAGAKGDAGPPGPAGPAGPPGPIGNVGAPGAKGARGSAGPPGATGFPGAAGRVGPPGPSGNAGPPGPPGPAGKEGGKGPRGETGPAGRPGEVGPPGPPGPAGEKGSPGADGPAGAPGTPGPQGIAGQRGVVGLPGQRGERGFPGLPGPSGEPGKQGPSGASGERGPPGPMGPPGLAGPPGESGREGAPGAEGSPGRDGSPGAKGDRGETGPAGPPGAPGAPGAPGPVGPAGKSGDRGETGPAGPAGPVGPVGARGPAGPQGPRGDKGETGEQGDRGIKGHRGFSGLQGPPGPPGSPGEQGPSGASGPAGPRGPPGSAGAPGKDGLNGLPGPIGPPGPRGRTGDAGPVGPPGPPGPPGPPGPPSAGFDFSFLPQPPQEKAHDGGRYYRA
T1 sequence (P08123 80-1119 limits assumed, chain 2 of 2): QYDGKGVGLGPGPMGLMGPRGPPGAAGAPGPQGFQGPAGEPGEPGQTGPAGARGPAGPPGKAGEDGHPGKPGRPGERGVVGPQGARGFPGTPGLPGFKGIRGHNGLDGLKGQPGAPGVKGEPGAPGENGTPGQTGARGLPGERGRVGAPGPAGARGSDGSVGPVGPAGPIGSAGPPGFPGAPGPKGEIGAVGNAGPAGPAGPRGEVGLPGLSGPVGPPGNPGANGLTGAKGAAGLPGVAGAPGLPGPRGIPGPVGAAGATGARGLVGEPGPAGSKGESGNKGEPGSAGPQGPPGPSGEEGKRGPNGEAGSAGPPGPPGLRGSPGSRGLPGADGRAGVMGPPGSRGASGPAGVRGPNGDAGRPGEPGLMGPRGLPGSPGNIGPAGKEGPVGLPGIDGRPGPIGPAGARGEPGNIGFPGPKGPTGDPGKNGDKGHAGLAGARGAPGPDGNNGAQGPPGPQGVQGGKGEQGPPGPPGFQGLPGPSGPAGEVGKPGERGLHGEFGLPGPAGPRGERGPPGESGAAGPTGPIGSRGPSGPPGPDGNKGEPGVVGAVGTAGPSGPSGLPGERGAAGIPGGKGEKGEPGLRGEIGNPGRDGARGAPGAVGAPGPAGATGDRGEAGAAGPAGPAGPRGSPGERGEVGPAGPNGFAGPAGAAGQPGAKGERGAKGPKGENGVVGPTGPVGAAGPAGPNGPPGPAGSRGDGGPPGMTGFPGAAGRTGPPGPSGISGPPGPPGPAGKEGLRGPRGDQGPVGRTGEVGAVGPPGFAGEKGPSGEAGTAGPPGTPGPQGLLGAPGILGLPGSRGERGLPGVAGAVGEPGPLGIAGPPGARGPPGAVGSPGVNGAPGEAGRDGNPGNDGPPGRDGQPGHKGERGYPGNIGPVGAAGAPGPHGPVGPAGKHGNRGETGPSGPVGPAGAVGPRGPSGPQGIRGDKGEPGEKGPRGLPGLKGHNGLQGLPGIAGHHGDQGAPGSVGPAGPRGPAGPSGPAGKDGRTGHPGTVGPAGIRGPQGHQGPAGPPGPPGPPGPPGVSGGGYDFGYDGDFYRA

[2] = biological target: T2, rat collagen, acid soluble, type I, rat tail (Upstate 08-115) (rat, UniProt P02454 152-1207; P02466 86-1125); test: dried collagen assay
T2 construct: tissue extract, gelled and dried in wells; also called dried rat collagen
T2 sequence (P02454 152-1207, chain 1 of 2): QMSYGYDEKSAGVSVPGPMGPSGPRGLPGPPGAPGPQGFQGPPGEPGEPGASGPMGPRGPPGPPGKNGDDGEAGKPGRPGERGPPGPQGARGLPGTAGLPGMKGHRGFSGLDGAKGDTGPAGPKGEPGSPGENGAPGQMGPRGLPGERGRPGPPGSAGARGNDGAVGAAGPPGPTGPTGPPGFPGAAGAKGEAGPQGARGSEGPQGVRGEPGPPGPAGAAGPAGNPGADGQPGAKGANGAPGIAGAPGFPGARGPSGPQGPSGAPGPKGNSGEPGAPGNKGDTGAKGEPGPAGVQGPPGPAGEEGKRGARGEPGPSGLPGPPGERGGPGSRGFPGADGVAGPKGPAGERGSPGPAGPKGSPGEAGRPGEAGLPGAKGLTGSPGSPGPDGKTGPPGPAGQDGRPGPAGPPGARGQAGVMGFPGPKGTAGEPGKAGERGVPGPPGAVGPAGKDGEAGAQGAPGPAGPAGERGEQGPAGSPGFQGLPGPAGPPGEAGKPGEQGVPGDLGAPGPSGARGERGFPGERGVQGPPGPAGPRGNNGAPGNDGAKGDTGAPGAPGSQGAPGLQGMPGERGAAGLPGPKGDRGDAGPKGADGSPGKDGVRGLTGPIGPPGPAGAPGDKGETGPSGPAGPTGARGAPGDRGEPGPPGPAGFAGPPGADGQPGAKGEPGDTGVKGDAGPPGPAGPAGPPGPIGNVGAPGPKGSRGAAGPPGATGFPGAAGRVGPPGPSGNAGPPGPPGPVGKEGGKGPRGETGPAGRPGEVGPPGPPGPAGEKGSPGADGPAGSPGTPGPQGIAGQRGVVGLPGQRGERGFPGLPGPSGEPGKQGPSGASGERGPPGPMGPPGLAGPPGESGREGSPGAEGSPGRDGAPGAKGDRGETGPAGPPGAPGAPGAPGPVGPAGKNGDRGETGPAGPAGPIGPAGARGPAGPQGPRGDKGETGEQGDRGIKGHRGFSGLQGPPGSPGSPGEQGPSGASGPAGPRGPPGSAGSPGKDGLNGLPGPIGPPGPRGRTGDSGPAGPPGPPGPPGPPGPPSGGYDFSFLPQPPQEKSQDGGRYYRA
T2 sequence (P02466 86-1125, chain 2 of 2): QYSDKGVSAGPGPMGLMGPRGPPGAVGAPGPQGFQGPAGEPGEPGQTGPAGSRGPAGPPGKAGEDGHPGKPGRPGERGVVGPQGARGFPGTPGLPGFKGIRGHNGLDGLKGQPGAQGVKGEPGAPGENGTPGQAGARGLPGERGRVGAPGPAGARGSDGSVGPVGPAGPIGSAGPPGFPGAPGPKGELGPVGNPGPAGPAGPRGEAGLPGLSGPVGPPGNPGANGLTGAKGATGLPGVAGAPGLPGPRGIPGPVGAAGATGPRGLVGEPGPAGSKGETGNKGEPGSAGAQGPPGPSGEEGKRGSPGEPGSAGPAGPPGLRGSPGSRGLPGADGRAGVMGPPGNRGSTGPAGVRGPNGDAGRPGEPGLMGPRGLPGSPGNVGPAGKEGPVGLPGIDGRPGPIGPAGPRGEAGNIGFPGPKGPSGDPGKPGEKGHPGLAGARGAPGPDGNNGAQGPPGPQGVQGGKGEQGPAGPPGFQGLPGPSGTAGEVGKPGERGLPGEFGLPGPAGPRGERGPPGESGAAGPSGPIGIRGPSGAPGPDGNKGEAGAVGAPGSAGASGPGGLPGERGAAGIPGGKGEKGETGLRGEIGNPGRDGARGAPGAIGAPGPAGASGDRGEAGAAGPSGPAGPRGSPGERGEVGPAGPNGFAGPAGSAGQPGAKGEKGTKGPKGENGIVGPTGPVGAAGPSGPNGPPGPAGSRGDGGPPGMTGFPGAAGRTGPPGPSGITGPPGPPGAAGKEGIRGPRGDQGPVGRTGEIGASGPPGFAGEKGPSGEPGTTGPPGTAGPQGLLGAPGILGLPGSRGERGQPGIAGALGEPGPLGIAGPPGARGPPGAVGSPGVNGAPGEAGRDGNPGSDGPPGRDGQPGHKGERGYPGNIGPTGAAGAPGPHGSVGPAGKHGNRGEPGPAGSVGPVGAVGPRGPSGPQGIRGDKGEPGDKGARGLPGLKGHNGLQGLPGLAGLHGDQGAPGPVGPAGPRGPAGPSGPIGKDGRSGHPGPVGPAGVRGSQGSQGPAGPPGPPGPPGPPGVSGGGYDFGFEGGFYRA

Row | % bound [1] | % bound [2] | Binder
1 | 77% | – | {Gd^T″}-GK([Gly-Gd^T″])WHCTTYFPHH[Dip]CLYG (disulfide 5-14 (inferred); not fully specified) [Compound ID 968]
2 | 11% | – | {Gd^T″}-GK([Gly-Gd^T″])WHCTTYFPHHYCL[Dip]G (disulfide 5-14 (inferred); not fully specified) [Compound ID 967]
3 | 13% | – | {Gd^T(3)}-GQWHCTTRFPHHY[Pen]LYG (disulfide 5-14; not fully specified (C-terminus)) [Compound ID 906]
4 | 14% | – | {Gd^T″}-GK([Gly-Gd^T″])WH[dC]TTK(Gd^T″)FPHHYCLY[Bip] (disulfide 5-14) [Compound ID 1019]
5 | – | 2% | {Gd^T″}-GQWHCTTRFPHH[dR]CLYG (disulfide 5-14 (inferred); not fully specified (C-terminus)) [Compound ID 902]
6 | – | 47% | {Gd^T″}-K(Gd^T″)K(Lys(Gd^T)Gd^T)WHCYTYFPHHYCVYG (disulfide 5-14 (inferred); reading uncertain) [Compound ID 1003]
7 | – | 2% | {Gd^T″}-GQWHCTTRFPHH[dT]CLYG (disulfide 5-14 (inferred); not fully specified (C-terminus)) [Compound ID 905]
8 | 9% | – | Cbz-GQWHCTK(Gd^T″)RFPHHYCLYG (disulfide 5-14 (inferred)) [Compound ID 940]
9 | 9% | – | {Gd^T″}-GQWHCTDRFPHHYCLYG (disulfide 5-14 (inferred)) [Compound ID 936]
10 | 14% | – | {Gd^T″}-GK([Gly-Gd^T″])WHCTTLFPHHVCLYG (disulfide 5-14 (inferred)) [Compound ID 966]
11 | – | 1% | {Gd^T″}-GQWHCT[dR]RFPHHYCLYG (disulfide 5-14 (inferred); not fully specified (C-terminus)) [Compound ID 900]
12 | 0% | – | {Gd^T(3)}-GQWHCTTRFPHH[d1Nal]CLYG (disulfide 5-14; not fully specified (C-terminus)) [Compound ID 904]
13 | – | 32% | {Gd^T(3)}-GK([Gly-Gd^T(3)])WHCTTYFPHH[Bip]CLYG (disulfide 5-14) [Compound ID 951]

Continued, binder first:

Row | Binder | % bound [1] | % bound [2]
14 | {Gd^T″}-DWTCS[dS]DEYTWHCNYE (disulfide 4-13 (inferred); not fully specified (C-terminus)) [Compound ID 836] | 13% | –
15 | {Gd^T}-DWTCS[dL]DEYTWHCNYE (disulfide 4-13 (inferred); not fully specified (C-terminus); reading uncertain) [Compound ID 847] | 16% | –
16 | {Gd^T″}-GQWHCTTDFPH[Dap]YCLYG (disulfide 5-14) [Compound ID 886] | – | 13%
17 | {Gd^G}-PWTCSGDEYAWHCNY[dE] (disulfide 4-13 (inferred); not fully specified (C-terminus); reading uncertain) [Compound ID 824] | 12% | 0%
18 | {Gd^T″}-DWTCSGDEYTWHCN[Tyr(3-I)]E (disulfide 4-13 (inferred); not fully specified (C-terminus)) [Compound ID 831] | 50% | 21%
19 | {Gd^T}-DWTCSGDEYTWHCNYE (disulfide 4-13 (inferred); not fully specified (C-terminus); reading uncertain) [Compound ID 848] | 35% | 9%
20 | {Gd^T}-DWTCSGDE[Tyr(3-I)]TWHCNYE (disulfide 4-13 (inferred); not fully specified (C-terminus); reading uncertain) [Compound ID 846] | 31% | 9%
21 | {Gd^T″}-DWTC[Phe(4-CO2H)]GDEYTWHCNYE (disulfide 4-13 (inferred); not fully specified (C-terminus)) [Compound ID 828] | 52% | 20%
22 | {Gd^T″}-DWTCSGDEYYWHCNYE (disulfide 4-13 (inferred); not fully specified (C-terminus)) [Compound ID 834] | 22% | 9%
23 | {Gd^T″}-DWTCS[dA]DEYTWHCNYE (disulfide 4-13 (inferred); not fully specified (C-terminus)) [Compound ID 835] | 17% | 9%
24 | {Gd^T″}-GQWHCTTD[Phe(4-NH2)](Gd^T″)PHHYCLYG (disulfide 5-14 (inferred)) [Compound ID 885] | 16% | –
25 | {Gd^T″}-GQWHCTTD[Tyr(3-Cl)]PHHYCLYG (disulfide 5-14 (inferred); not fully specified (C-terminus)) [Compound ID 895] | – | 0%
26 | {Gd^T″}-GQWHCT[dN]RFPHHYCLYG (disulfide 5-14 (inferred); not fully specified (C-terminus)) [Compound ID 897] | – | 1%
27 | {Gd^T″}-GQWHCT[dS]RFPHHYCLYG (disulfide 5-14 (inferred); not fully specified (C-terminus)) [Compound ID 898] | – | 3%
28 | {Gd^T″}-GQWTCSGDEYAWHCNY[dE] (disulfide 5-14 (inferred); not fully specified (C-terminus)) [Compound ID 832] | 12% | –
29 | {Gd^T}-GQWACSGDEYTWHCNYE (disulfide 5-14 (inferred); not fully specified (C-terminus); reading uncertain) [Compound ID 840] | 15% | –
30 | {Gd^T″}-GQWTCSGDEYTWACNYE (disulfide 5-14 (inferred); not fully specified (C-terminus)) [Compound ID 833] | 13% | –
